Measurements published in PMC12703665, “A Trifunctional, Rare-Earth Theranostic Chelator Platform to Enable Diagnostic Nuclear Imaging, Surgical Resection, and Radiotherapy” (Journal of the American Chemical Society, 2025).
Where two headings read alike, the source gives them in different places.

What was measured:
[1] = test system: PC-3 PIP/flu (PSMA+/PSMA–) tumor xenografts
Experimental: For in vivo evaluation, athymic nude mice-bearing bilateral PC-3 PIP/flu (PSMA^+/PSMA^–) tumor xenografts were used (Figure ).
Representative PET-CT (Y-86) or SPECT (Lu-177, Tb-161) images were acquired at different time points starting as early as 0.5 h and up to 25-hours post administration of radiotracer. Mice were initially anesthetized with isoflurane gas at 4% isoflurane in oxygen and maintained during scans at 2.0%. PET-CT and SPECT images were normalized to units of percentage of injected dose per cubic centimeter and presented as maximum intensity projected scan (MIPS) images.
PET-CT scans were acquired in a Siemens Inveon Hybrid MicroPET/CT Scanner (Siemens Medical Solutions USA, Inc., Knoxville, TN), and image processing and region of interest (ROI) analysis conducted using the Inveon Research Workstation analysis software. ROI analysis of the PET/CT images was used to estimate tracer uptake in major organs or tissues, and quantitative results are given as percentage of injected dose per cubic centimeter (%ID/cc).
SPECT scans, on the other hand, were collected in a MILabs U-SPECT/CTUHR (ultra high-resolution) system and image processing was carried out using Imalytics preclinical image analysis software.

[2] = mouse, in vivo

With `COCCOCCOCCOc1ccc(C#Cc2cc(CN3CCN(Cc4cccc(C(=O)O)n4)CCN(Cc4cc(SC[C@H](N)C(=O)NCCCCCC(=O)NCCCC[C@H](NC(=O)N[C@@H](CCC(=O)O)C(=O)O)C(=O)O)cc(C(=O)O)n4)CC3)nc(C(=O)O)c2)cc1` [[86Y]Y-pepa-pic2-C-Hex-KuE, metal not drawn] the “Bone (ROI)” value ([1]; 0.5 h) was 1.3 ± 0.5 %ID/cc, the “Heart (ROI)” value ([1]; 0.5 h) was 1.7 ± 0.5 %ID/cc and the “L. Kidney (ROI)” value ([1]; 0.5 h) was 12.7 ± 1.6 %ID/cc. The “Liver (ROI)” value ([1]; 0.5 h) was 1.4 ± 0.5 %ID/cc, the “Muscle (ROI)” value ([1]; 0.5 h) was 0.8 ± 0.3 %ID/cc and the “R. Kidney (ROI)” value ([1]; 0.5 h) was 12.0 ± 2.4 %ID/cc. The “Tumor + (ROI)” value ([1]; 0.5 h) was 4.6 ± 1.7 %ID/cc, the “accumulation in the PSMA- tumor (PET/CT)” value ([1]; 0.5 h post-injection) was “no significant accumulation” and the “Bone (ROI)” value ([1]; 1 h) was 1.0 ± 0.5 %ID/cc. For the same compound, the “Heart (ROI)” value ([1]; 1 h) was 1.2 ± 0.3 %ID/cc, the “L. Kidney (ROI)” value ([1]; 1 h) was 12.2 ± 5.5 %ID/cc and the “Liver (ROI)” value ([1]; 1 h) was 1.1 ± 0.3 %ID/cc. For the same compound, the “Muscle (ROI)” value ([1]; 1 h) was 0.8 ± 0.4 %ID/cc, the “R. Kidney (ROI)” value ([1]; 1 h) was 11.9 ± 3.0 %ID/cc and the “Tumor + (ROI)” value ([1]; 1 h) was 4.4 ± 1.8 %ID/cc. The “Bone (ROI)” value ([1]; 1.5 h) was 0.8 ± 0.4 %ID/cc, the “Heart (ROI)” value ([1]; 1.5 h) was 1.0 ± 0.5 %ID/cc and the “L. Kidney (ROI)” value ([1]; 1.5 h) was 12.2 ± 3.4 %ID/cc. For the same compound, the “Liver (ROI)” value ([1]; 1.5 h) was 0.9 ± 0.4 %ID/cc, the “Muscle (ROI)” value ([1]; 1.5 h) was 0.6 ± 0.4 %ID/cc and the “R. Kidney (ROI)” value ([1]; 1.5 h) was 12.7 ± 2.9 %ID/cc. For the same compound, the “Tumor + (ROI)” value ([1]; 1.5 h) was 5.2 ± 1.8 %ID/cc, the “Bone (ROI)” value ([1]; 4 h) was 0.5 ± 0.3 %ID/cc and the “Heart (ROI)” value ([1]; 4 h) was 0.5 ± 0.3 %ID/cc. For the same compound, the “L. Kidney (ROI)” value ([1]; 4 h) was 8.8 ± 1.9 %ID/cc, the “Liver (ROI)” value ([1]; 4 h) was 0.7 ± 0.4 %ID/cc and the “Muscle (ROI)” value ([1]; 4 h) was 0.4 ± 0.2 %ID/cc. For the same compound, the “R. Kidney (ROI)” value ([1]; 4 h) was 8.8 ± 2.3 %ID/cc, the “Tumor + (ROI)” value ([1]; 4 h) was 5.2 ± 1.7 %ID/cc and the “Bone (ROI)” value ([1]; 25 h) was 0.3 ± 0.2 %ID/cc. The “Heart (ROI)” value ([1]; 25 h) was 0.1 ± 0.1 %ID/cc, the “L. Kidney (ROI)” value ([1]; 25 h) was 4.0 ± 1.2 %ID/cc and the “Liver (ROI)” value ([1]; 25 h) was 0.3 ± 0.2 %ID/cc. The “Muscle (ROI)” value ([1]; 25 h) was 0.3 ± 0.3 %ID/cc, the “R. Kidney (ROI)” value ([1]; 25 h) was 4.0 ± 1.2 %ID/cc and the “Tumor + (ROI)” value ([1]; 25 h) was 3.3 ± 1.0 %ID/cc. For the same compound, the “probe remaining intact (urine metabolite analysis)” value [2] was greater than 93%.
